Measured values: US20190218309A1 (Chugai, published 2019)
Blank lines part the entries; values can stand above or below the binder they belong to.

Assays:
[1] = biological target: T1, soluble mouse FcRn (mFcRn), with mouse β2-microglobulin (mouse, UniProt Q61559 22-290; P01887 21-119); experiment: SPR (Biacore T100), mouse FcRn immobilised on a CM4 chip, clone 278-IgG1 50 µg/mL as analyte, pH 7.4, 25 °C; bound amount normalised to 100 [ii]
T1 sequence: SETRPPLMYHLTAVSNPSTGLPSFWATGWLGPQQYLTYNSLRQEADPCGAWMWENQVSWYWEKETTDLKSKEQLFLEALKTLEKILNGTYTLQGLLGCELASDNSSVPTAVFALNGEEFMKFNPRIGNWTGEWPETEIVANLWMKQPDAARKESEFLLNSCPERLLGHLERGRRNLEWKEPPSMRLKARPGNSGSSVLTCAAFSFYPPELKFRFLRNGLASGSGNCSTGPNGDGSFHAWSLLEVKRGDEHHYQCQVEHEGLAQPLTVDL
T1 sequence (b2m): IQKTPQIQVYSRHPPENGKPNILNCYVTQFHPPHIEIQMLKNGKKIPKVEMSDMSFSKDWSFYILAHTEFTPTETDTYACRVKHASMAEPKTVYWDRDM
Method: (§1) Binding of an antigen-antibody immune complex with FcRn was assessed using Biacore T100 (GE Healthcare). […] Subsequently, a 20 mM Tris-HCl, 150 mM NaCl, pH 9.0 or pH 9.5 solution was injected to regenerate the sensor chip. A 50 mmol/L Na-Phosphate (phsophoric acid), 150 mmol/L NaCl, 0.05% Tween20, pH 7.4 buffer was used as the running buffer, and binding between the antigen-antibody immune complex and FcRn was measured at 25° C.

[2] = biological target: T2, human IgE (variable region derived from an anti-human glypican3 antibody) (human); experiment: SPR (Biacore T200), 37 C; ratio of KD values
T2 construct: also called hIgE
Method: Running buffers used in the assay were:
A chemically-synthetized peptide having a human glypican 3 protein-derived sequence (SEQ ID NO: 47) whose C-terminal Lys is biotinylated (hereinafter abbreviated as “biotinylated GPC3 peptide”) was added in an appropriate amount and immobilized onto Sensor chip SA (GE Healthcare) based on the affinity between biotin and streptavidin. Human IgE was immobilized onto the chip by injecting it at an appropriate concentration so as to be trapped by the biotinylated GPC3 peptide. […] Then, 10 mmol/L glycine-HCl (pH 1.5) was injected to regenerate the sensor chip. The interaction was always measured at 37° C. The measurement result was analyzed by curve fitting using Biacore T200 Evaluation Software (GE Healthcare) to calculate the association rate constant ka (1/Ms) and dissociation rate constant kd (1/s). The dissociation constant KD (M) was calculated from the above-described constants.

[3] = biological target: T3, soluble human IL-6 receptor (hsIL-6R) (human, UniProt P08887 20-357); experiment: ECL sandwich: biotinylated Fv4-IgG1 on streptavidin plate captures hsIL-6R, detected with ruthenium-labelled PHX-F29
T3 construct: also called hIL-6R
T3 sequence: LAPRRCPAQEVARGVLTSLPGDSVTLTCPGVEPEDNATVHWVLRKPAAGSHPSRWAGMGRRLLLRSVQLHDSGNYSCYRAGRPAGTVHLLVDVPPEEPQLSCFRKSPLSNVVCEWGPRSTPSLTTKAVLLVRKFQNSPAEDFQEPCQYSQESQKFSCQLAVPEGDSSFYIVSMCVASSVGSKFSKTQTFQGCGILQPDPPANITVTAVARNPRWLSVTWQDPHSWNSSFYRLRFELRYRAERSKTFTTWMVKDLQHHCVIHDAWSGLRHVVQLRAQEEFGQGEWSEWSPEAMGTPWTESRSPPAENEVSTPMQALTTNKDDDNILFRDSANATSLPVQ
Method: Whether or not two types of antibodies can bind to a single antigen simultaneously was evaluated by an electrochemiluminescence method. […] After washing, 100 μL of the hsIL-6R solutions prepared at 0, 0.2, 1, 5, and 25 μg/mL was added, and they were allowed to react at room temperature for one hour. […] After washing, 150 μL of Read Buffer T (×4) (Meso Scale Discovery) was dispensed into each well, and this was immediately followed by chemiluminescence measurement using the SECTOR IMAGER 2400 Reader (Meso Scale Discovery).

[4] = biological target: T1, soluble mouse FcRn (mFcRn), with mouse …; experiment: SPR (Biacore T100), mouse FcRn immobilised on a CM4 chip, Fv4-IgG1 50 µg/mL alone or with hsIL6R 12.5 µg/mL as analyte, pH 7.4, 25 °C; bound amount normalised to 100 [i]
Method: as §1

[5] = biological target: T3, soluble human IL-6 receptor (hsIL-6R); experiment: SPR (Biacore T100), 25 C, pH 7.4; Fv4-F22 10 µg/mL with or without hsIL6R 2.5 µg/mL over immobilized hFcRn
Method: (§2) Binding of an antigen-antibody immune complex with human FcRn was assessed using Biacore T100 (GE Healthcare).
(§3) Subsequently, a 20 mM Tris-HCl, 150 mM NaCl, pH 9.0 or pH 9.5 solution was injected to regenerate the sensor chip. A 50 mmol/L Na-Phosphate (phosphoric acid), 150 mmol/L NaCl, 0.05% Tween20, pH 7.4 buffer was used as the running buffer, and binding between the antigen-antibody immune complex and FcRn was measured at 25° C.

[6] = biological target: soluble human FcRn (hFcRn), complex with β2-microglobulin (human, UniProt P55899 24-290; P61769 21-119); experiment: SPR (Biacore T100), human FcRn immobilised on a CM4 chip, Fv4-F22 10 µg/mL alone or with hsIL6R 2.5 µg/mL as analyte, pH 7.4, 25 °C; bound amount normalised to 100 [i]
Method: as §2, §3

GC-hIgA-MYC = biological target: T4, GC-hIgA-MYC (human); experiment: SPR (Biacore T200), 25 C, pH 7.4, 1.2 mM Ca; 200 nM antibody with or without 200 nM antigen over captured human FcγRIIIaV; immune complex shown by slower dissociation
T4 construct: also called hIgA-v2
Method: Binding of an antigen-antibody immune complex with FcγR was assessed using Biacore T200 (GE Healthcare).
A suitable amount of the Penta-His Antibody (QIAGEN) was immobilized onto Sensor chip CM5 (GE Healthcare) by an amine coupling method; and a suitable concentration of his-tagged human FcγR IIIaV was injected. Human FcγR IIIaV was immobilized onto the chip by allowing the penta-His antibody immobilized on the chip to capture human FcγR IIIaV. A solution containing 200 nM antibody or a mixed solution containing 200 nM antibody and 200 nM antigen was injected as the analyte; and it was allowed to interact with human FcγR IIIaV immobilized on the sensor chip. Subsequently, a 10 mmol/L Glycine-HCl, pH2.5 solution was injected to regenerate the sensorchip. A 1.2 mmol/L CaCl₂/0.05% tween20, 20 mmol/L ACES, 150 mmol/L NaCl, pH 7.4 buffer was used as the running buffer, and binding between the antigen-antibody immune complex and FcγR was measured at 25° C.

[7] = biological target: Human IgA (hIgA), H (WT)-IgA1 / L (WT) (human); experiment: >=
Human IgA (hIgA), H (WT)-IgA1 / L (WT) (human), sequence (VH, as listed by the source): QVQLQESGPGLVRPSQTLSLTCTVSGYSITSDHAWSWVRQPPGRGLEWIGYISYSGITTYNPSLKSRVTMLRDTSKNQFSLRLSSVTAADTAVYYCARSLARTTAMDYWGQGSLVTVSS

T2 sequence (heavy, as listed by the source): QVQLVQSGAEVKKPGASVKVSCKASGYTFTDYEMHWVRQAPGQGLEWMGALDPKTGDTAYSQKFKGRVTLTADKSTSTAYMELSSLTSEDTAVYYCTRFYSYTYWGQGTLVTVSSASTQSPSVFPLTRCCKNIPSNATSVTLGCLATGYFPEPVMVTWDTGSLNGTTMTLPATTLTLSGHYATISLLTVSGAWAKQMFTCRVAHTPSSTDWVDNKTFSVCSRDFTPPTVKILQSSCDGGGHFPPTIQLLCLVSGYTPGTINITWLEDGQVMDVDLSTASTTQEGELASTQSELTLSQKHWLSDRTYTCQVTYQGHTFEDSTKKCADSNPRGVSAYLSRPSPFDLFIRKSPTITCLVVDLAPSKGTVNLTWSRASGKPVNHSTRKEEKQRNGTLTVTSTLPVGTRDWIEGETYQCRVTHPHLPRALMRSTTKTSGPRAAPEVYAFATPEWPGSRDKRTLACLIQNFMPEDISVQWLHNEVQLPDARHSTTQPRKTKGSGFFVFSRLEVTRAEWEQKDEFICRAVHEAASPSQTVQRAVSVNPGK
T4 sequence (heavy, as listed by the source): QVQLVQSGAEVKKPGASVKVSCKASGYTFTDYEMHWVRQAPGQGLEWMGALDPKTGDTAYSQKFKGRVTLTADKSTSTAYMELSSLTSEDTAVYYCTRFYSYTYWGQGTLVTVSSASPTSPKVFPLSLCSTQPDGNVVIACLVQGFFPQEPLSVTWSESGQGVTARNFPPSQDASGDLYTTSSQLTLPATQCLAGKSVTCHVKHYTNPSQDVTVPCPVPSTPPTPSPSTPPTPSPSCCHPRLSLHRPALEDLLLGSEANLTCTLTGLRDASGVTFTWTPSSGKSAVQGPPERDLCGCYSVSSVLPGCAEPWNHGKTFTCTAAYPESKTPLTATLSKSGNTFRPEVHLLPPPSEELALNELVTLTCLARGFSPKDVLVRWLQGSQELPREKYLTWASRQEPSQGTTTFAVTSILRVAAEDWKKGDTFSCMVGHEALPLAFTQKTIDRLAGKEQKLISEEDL

binding result [1]: binds
pH dependency, KD (pH 5.8, 1.2 mM Ca)/KD (pH 7.4, 1.2 mM Ca) [2]: 842 ratio
pH/Ca dependency, KD (pH 5.8, 3 µM Ca)/KD (pH 7.4, 1.2 mM Ca) [2]: 1640 ratio
B1: clone 278 (antibody, human IgG1, kappa)
heavy: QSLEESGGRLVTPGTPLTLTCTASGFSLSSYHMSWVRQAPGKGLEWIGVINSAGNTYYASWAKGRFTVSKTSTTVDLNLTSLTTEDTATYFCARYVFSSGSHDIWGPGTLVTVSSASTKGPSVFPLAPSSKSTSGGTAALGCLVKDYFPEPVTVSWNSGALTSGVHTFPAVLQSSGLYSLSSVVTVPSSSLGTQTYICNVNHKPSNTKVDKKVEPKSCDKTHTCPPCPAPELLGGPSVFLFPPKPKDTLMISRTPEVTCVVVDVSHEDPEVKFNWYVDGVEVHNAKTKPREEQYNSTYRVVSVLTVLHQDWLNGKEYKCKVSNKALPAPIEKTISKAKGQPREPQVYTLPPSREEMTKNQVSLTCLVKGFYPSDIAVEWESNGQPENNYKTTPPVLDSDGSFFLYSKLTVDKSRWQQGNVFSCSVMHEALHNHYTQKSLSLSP
light: AYDMTQTPASVEVAVGGTVTIKCQASQSIGSWLAWYQQKPGQPPKELIYGTSTLESGVPSRFIGSGSGTEFTLTISGVECADAATYYCQQGYSEDNIDNAFGGGTEVVVKRTVAAPSVFIFPPSDEQLKSGTASVVCLLNNFYPREAKVQWKVDNALQSGNSQESVTEQDSKDSTYSLSSTLTLSKADYEKHKVYACEVTHQGLSSPVTKSFNRGEC
notes: pH-dependent anti-human IgE antibody with a human IgG1 heavy chain constant region and a human light chain constant region

binding result [3]: binds
binding result [4]: binds
B2: Fv4-IgG1 (antibody)
heavy: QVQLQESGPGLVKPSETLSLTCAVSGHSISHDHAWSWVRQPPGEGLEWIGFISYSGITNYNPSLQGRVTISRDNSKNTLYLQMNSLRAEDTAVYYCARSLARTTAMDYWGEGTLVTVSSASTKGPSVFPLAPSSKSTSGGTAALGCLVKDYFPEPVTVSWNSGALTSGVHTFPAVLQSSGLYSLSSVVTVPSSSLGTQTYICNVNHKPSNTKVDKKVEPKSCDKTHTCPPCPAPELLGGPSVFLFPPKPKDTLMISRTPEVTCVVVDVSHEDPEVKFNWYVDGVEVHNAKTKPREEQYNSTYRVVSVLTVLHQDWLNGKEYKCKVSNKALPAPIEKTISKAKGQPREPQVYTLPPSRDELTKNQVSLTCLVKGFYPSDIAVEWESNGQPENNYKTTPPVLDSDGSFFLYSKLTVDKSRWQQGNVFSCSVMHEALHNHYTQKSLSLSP
light: DIQMTQSPSSLSASVGDSVTITCQASTDISSHLNWYQQKPGKAPELLIYYGSHLLSGVPSRFSGSGSGTDFTFTISSLEAEDAATYYCGQGNRLPYTFGQGTKVEIERTVAAPSVFIFPPSDEQLKSGTASVVCLLNNFYPREAKVQWKVDNALQSGNSQESVTEQDSKDSTYSLSSTLTLSKADYEKHKVYACEVTHQGLSSPVTKSFNRGEC
notes: pH-dependent anti-human IL-6 receptor antibody

binding result [5]: binds
binding result [6]: binds
B3: Fv4-F22 (antibody, human IgG1, kappa)
heavy: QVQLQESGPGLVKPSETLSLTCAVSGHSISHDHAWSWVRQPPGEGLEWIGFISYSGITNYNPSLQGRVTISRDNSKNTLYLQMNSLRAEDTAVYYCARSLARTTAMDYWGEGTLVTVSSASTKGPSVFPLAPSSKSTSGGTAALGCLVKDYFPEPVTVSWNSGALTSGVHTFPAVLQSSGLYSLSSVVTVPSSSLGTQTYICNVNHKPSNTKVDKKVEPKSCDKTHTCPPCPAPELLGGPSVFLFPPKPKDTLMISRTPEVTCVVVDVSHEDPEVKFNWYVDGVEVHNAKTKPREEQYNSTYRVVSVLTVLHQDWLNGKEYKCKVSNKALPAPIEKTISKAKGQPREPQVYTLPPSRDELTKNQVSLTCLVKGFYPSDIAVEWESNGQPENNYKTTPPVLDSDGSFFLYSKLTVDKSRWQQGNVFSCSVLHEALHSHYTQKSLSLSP
light: DIQMTQSPSSLSASVGDSVTITCQASTDISSHLNWYQQKPGKAPELLIYYGSHLLSGVPSRFSGSGSGTDFTFTISSLEAEDAATYYCGQGNRLPYTFGQGTKVEIERTVAAPSVFIFPPSDEQLKSGTASVVCLLNNFYPREAKVQWKVDNALQSGNSQESVTEQDSKDSTYSLSSTLTLSKADYEKHKVYACEVTHQGLSSPVTKSFNRGEC

binding result (GC-hIgA-MYC): binds
Ca-dependent binding activity (fold) [7]: 100 times
B4: GA2-IgG1 (antibody, V domains shown)
VH: QVQLVQSGAEVKKPGSSVKVSCKASGGTFSSYAISWVRQAPGQGLEWMGGIIPIFGTANYAQKFQGRVTITADESTSTAYMELSSLRSEDTAVYYCARPRWETAISSDAFDIWGQGTMVTVSS
VL: DIQMTQSPSSLSASVGDRVTITCRASQSISDDLNWYQQKPGKAPKLLIYEASNLQSGVPSRFSGSGSGTDFTLTISSLQPEDFATYYCQQHSSSPLTFGQGTKVEIKR
notes: also called GA-IgG1
